Results on two substances are retold here after patent US20250215089A1.

Test [1] has as its target human CD40 (human) (UniProt P25942). Put plainly: FACS, Raji cells. For orientation: Flow cytometry measures light scatter and fluorescence of single cells or particles in a stream.
The target in test [2] is human PD-L1 (human) (UniProt Q9NZQ7). Put plainly: FACS, NCI-H226 cells.
Test [3] has the same target. Put plainly: cell-based or functional assay.
Test [4] concerns the target human CD40 (human) (UniProt P25942). Put plainly: FACS, CHO-K1/hCD40 cells.
Test [5] deals with human PD-L1 (human) (UniProt Q9NZQ7). The experiment in a line: FACS, CHO-K1/hPD-L1 cells.
In test [6] the target is cynomolgus monkey CD40 (cynomolgus monkey). Put plainly: FACS, CHO-K1/cyCD40 cells.
For test [7], the target named is cynomolgus monkey PD-L1 (cynomolgus monkey). Put plainly: FACS, CHO-K1/cyPD-L1 cells.

human PD-L1 (human), sequence (Q9NZQ7 19-290): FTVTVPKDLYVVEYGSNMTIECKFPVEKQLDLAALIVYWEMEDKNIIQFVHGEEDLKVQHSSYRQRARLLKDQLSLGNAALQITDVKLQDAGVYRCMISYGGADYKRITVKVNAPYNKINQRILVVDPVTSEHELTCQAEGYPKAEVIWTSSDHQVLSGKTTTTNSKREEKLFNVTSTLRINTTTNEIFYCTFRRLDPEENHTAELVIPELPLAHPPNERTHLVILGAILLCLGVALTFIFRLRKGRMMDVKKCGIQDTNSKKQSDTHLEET
human CD40 (human), sequence (P25942 21-277): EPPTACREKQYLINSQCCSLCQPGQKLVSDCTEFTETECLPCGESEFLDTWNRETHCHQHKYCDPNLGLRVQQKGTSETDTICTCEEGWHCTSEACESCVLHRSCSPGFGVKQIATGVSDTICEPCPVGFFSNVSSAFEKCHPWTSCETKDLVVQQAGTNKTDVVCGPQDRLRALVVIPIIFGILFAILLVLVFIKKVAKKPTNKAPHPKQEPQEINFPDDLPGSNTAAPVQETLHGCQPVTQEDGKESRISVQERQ

Consider Isotype (antibody), for which the Maximum MFI in test [1] is 78 MFI; in test [2], 55 MFI; in test [4], 23 MFI; in test [5] it was 170 MFI; in test [6], 59 MFI; in test [7] it was 50 MFI. Also, the Maximum RLU, Jurkat-NFAT-hPD1 reporter in test [3] came to 403 RLU.
Substance hIgG1 (antibody) yielded a Maximum RLU, Jurkat-NFAT-hPD1 reporter in test [3] of 2370 RLU. In test [5], this substance registered a Maximum MFI of 86 MFI.
